Data published in PMC4532613 (Molecular and biochemical parasitology, 2015).

Biological target: the molecule itself
Experiment: SEC

B1: Ca^2+-binding mutant FCaBP^E151Q/E188Q, recombinant (natural protein)
chain: MGACGSKGSTSDKGLASDKDGKKAKDRKEAWERIRQAIPREKTAEAKQRRIELFKKFDKNETGKLCYDEVHSGCLEVLKLDEFTPRVRDITKRAFDKARALGSKLENKGSEDFVEFLEFRLMLCYIYDFFELTVMFDEIDASGNMLVDEEQLKRAVPKLEAWGAKVEDPAALFKELDKNGTGSVTFDQFAAWASAVKLDADGDPDNVPESA
B1 was tested, and the “stoichiometry N” value was 2.
